Source: the NTF2 design screens of Basanta et al. (2020)

Assay: protease stability score; higher = more stable; yeast display proteolysis, trypsin and chymotrypsin;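 also: log10 excess protease needed over predicted unfolded state with 0 meaning unfolded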

| Sequence | protease stability score |
| --- | --- |
| DEKRMLKVAKEVAEMVRRGDADRVHKYLKEGGRAEVGDTEINGPDQMKEYVKKVKDQGAHNEYKETEYKGDTMTIKTQAHLGDATVDFEVHYQVKGDKVERVEVRFNKEQLKKFKDS | -0.087 |
| DERRLEEVARHIRRGDKKHLNRLADPNAQLQYGNQRYTGRERVQTFWRQMITRADHLRVQSVTIHNGRIDAKFEMRVNGNKVEYRLKVQIHNGKAQNVQVNYRDEEDEKRMEENLG | 0.183 |
| DESELEQLKRDWEHNDFDQLVRNMDKDVRLRIGNKQWHGHEQVQNFNRKMQEQIDHQHIRHIETRGNKIRVTYEIDINGQTMVVNAEAYIDNGRLKSMHVKFTSEEHRKVFEKAVD | 0.746 |
| DEEEAKKIVETVVKAVENGDVEKLKQMIKEGGKYKVINRERHGPEAVEEVIRLLQKAGVEMEFKEVRVEGNTATTRVEYRHGDKEAEVKVTATMQGGRIDEVRFKMSEEAQKMVEHG | 1.08 |
| DHEDRELAKEWEKALHSGDRDQVHELMDPNASVRIGDKVFTGREEVSKHLKKIKDEMRIHIHSVHLEVQNGEVDNKNDLVADVNGVPVRVTVVVRITAQNGKMKELDMRFDPRQKEQMDR | 0.093 |
| DEDAKRSLNELWKAIQQGDPDRIRELIDKNVRLRYGEKRIHGRDQAAKFWHDLHDHARFKVRDVSIKIHNGRADVRMRMTIHINGEPLDVTVIYKIEFHNGQAVRIELEVDEDQLRKQRK | 0.845 |
| DNQDARKLQEYFRNMVTGNEQRAMQYMDKDVTVHVGDKVFHGMERAVKTLVQRLKEIRVHYKFKQVSVQGNKVNIKADVEEDDNGRPETKRLEMDVEWHNGKVKKVVIKNDR | 1.49 |
| DEEDLRKQANEVAEMFMHGDPTDAREQFDKHAEVQYGDKVVHGKEQAAQLVKEFRDNVDRVELKRVEAHGDKVTVTVVFTVNGRKVVIVFEMRIHNGKIKSVDAHVTSEELHKRMQD | 0.155 |
| DRKTEKDAIERARTALQDGDPQQAFDLFDENAKIVVGDQEYHGREQVSTAVEEFRKEIDHFEVERVSVHNGHATIDARVEHNGRSDDVTFHVTVHNGQVREAQVRTK | -0.213 |
| DEEDANRHVREFWKNVETGNEDDLRDLADPNARLFVGDKKYRGRSEMAKAFKEIRKNVDHFELKSVQEKGDKVKVVAVWNHNGRNVEMVVIFVAHNGRIKEVQVRHK | 0.233 |
| DSERAKQWTHFLRLMETGNEEDLSKMADPNARFQVGDETYKGKDDVTKWARTVKTHMRVTYKRLNNDDEEGHARIEADYQYDHNGKPEEDKNSLVLSFHNGQIKEVVIHHVS | 0.164 |
| DEKALQLLQRIMEAWQKGDPQQVVDNIDKDARIHIGDKHLHGREDARRVVEQEMTEARLSFDVKHVSVQGDKVKVSFHAQLDTNGRPKTYRASATMNASNGKAKQMDVKEDK | -0.232 |
| DEKDETVVRKWLEAQHTGNPEEAKHQVDKNVDIRVGDHKVTGRHQIMHNLEQRKKSARFELQLTHLSASNGKVTIQIDVRINYNGRPFTDTLHATAKIKNGQLHSFSVDVDEEYLKKVKS | -0.272 |
| DSDAARILVEFWTALQKGDHDRLKQNMDPNAKMKIGDHTLHGREQIAEHATKLKREMRIDIRLKSFDDDGDHAILKFEMRVDVNGKPFSMDVTVNVKAHNGHLVKVNFRIPEKDLQRLNS | 0.633 |
| DDREMKKFAEQYARNLTRNDEDSLKDLFDENAEVTIGDKQVRGQEKIKSLLHQLHQQVDHFDLRRVDAQGDDIKIVVLWNHNGKHLNVTISMRVHNGRIKSATDHVRSEDDERKFKR | 0.569 |
| DEKHDAKRVWETILNQLRRGDSEEFMKLADKDVKIEYGDKTIHGREDLKSWMNERQKDYDHLDADLTHMDVQGEDVNVTYTDRAKHNGTEHHRTVQAVFRVHNGRLRLQSWYHS | 0.494 |
| DTRSVMKDILKKIQENLKTGDPQHAADLFDPNVSVRVGDKELRGREQVRKKMKEERDRVDHVDMRIHDMKVSNGRVVVHYTWTVTVNGRKETNRAQLHADNEGDKALVTEVNVK | -0.106 |
| DERDAETWTRMLEAVEYNNPEEVRKNADPNANFVYGNKTITGREQYAEEMKKEMDDMRKHVKIDDYHVEGDNIHVSAKFEWEVNGTPVRDTVSVQFVAENGKVRSVQYRFDPDSERKEDQ | -0.641 |
| DEDLLRRAEQFIKAELRNNPDRAKELADPNVKFNIGDKEIHGMDDFRRYLHKKVKNMKWRAKVTHMKVQGNHAKLHVKVTLDINGRPFDVTRDILIVFHNGKIRDVNVRVDPEDKKRQKE | 1.39 |
| DENTEAQRFADNFNKLMNTGDEDTLNKLFDENAKVEVGDHRLHGREKLTKLAETNKQRFDHVKVDVDDIKVDNGTVQMRAVVIVYHNGRHHSVELEVVAQNHNGHARVKRMRVG | 0.553 |
| DEQIVHRAKEMDKAFNRGDPDLFNKMADENARVEVGDNVLNGRSDYKRYMDQVRKDLNVEIKSVHHQKRPNHARVKVDQVMNHNGQPRRRHIDIKIRAHNGTAKNIHFREDG | -0.326 |
| DEEVKRLAERILSALERGDPQQISDNFDPNARLEIGDKRIHGREELRKYVDTVRKTQRISIRSFRVSVHNGQVDIDIHFENEHNGDPDERRRSINIQASNGKAKNVVYQDNK | -0.336 |
| DHEEVHKLAKKLAEAVVNGNEDRIRKFLKPDVEYKNIDEEYQGKQVAEVIVKTIKTKGVRLKVEEVKVEGDTVEAQYVFQVNGTKVTAHVRAEAKGGRVDKWQVHISDTAKKLRKEG | 1.15 |
| DEDVKRVMEELVKVMHNNDPNEFMKLLDPNARWTIGDKTYHGRDNLRREVKKHHDQQRVQYKSWHIDVHGERATATAEVRVDHNGQPDTFRLVISAQAHNGRVKRAEYRKDT | -0.145 |
| DEDHQAEKIFRDLVEAFKNGDEKRAEELFDPNARLQYGDKTYHGRKAASRLVSHVRTEFDHVDWQIKSVTRTGDKIDIDVDATADHNGHQDKFKIIITLKVTNGKAVLKEVRFK | 1.94 |

| Sequence | protease stability score |
| --- | --- |
| DDDNKRKAETYMKNLHTGDPDKATEYMDKDAKIQYGDKSVHGRHQWREEIERRRKELRFTVDLHRLHVQGEKFDLKYIEHNNHNGNPKSQSASVTYRMHNGRVHSIQYSYTK | -0.237 |
| DTDDTEALRRFFDALHNGDPDKVDKNADKDVRFKVGDKEIHGREQLRRTVEQQKKEIRYEVDVKQISDHNGQVSVHAHFQENKNGKPKNVEVTAVAEAENGTLKQLEFNSDQ | -0.367 |
| DEDAVKSASNAAQHGDFVRMAEEMRDNPEARYGDKDVRGREEVIRVVRILMEQVDSVKVKRVRVHGEKVTADLKFRVNGREFHANAVVVMDNGRFVKLVLHFTDSDFKHELHKRLE | 1.17 |
| DDEVLDDLVRLIKDNDWEQMANNADKDVKIQIGDKTWHGREQVEEVMRRMQETIDHLDIRSVTRHNGQVKVENRIEVNGQTIIYTVVFQAHNGRLKSMRVQATSHHAEDVMRQVIN | 0.792 |
| DDQLSDQLDKARKQIEEGNFEQVREYVDPNVSVHVGDKSVHGREKYTHEILRKHQELRYKVEVTRVHVENGRLDVKAQETVNHNGRPESSRYVLDLNMHNGRLKHMTKSSDK | -0.321 |
| DEEENKDVATTFVKAVEQGDPDKISHLFDENARAQIGDKEYHGREDLMRMAQEWRDRYDHIEIQDYKVHGNKVTAHFVMQHNGKRERRVMTAEWRNGQIHSMQVHSS | 1.37 |
| DEEAAKKMMETWMKAVQKGDEKTVQKVYKPNGRWVHIDEERQGVEVVVKMMQQVKKQGVEFQIRRAKVEGDRVQFVYDLRLGDKTATFTVELQAQGGRVQEVKAEVSEEAKEIVTKG | 0.14 |
| DKHQMHILKSIVENEQKGDEKSVSKMVDPNARFHVGDKRISGREQKDEDVQRKKDEIRVQIDKVEFNHSNGRVVVNMDMTIDRNGKPKTFKAQAHATFHNGTATSQTQTNDG | -0.614 |
| DDTNVRKVKEYLKAVEHGDEETLRENVDENATVQVGDHSIHGMDNIAKKIKKDRDELRWEIKELEAEAHNGHVNVRVDARYEVNGNPIEDKFTMHFKFENGRVESVEIRVPEEFQKRVDR | 0.165 |
| DDEREREFEHFLRVVEEGNPEELKKLLDPNVRIEYGDKVIHGREEYAKRVHETVKELRFSMSIHDVKVNGDTVEVDATSSWTHNGQPNKDQNVLVIRFHNGKFKEIRHDKDR | 0.607 |
| DKKANSMAHDLIRNRNSNNPERLKEMMDPNVEIVIGDKTVNGTHEYERQQRQRDRQIQIDVKSVTFKDRPNHAQVRFDAVFHHNGQPDRRVQEVIIRQRNGKVKHIHVQDTE | -0.365 |
| EDRDQAKHIIKEIMRAIQTGDRKHAMRQVDPNVRIHVGDKVLEGREEFMKWVKDLRDDVDHFHLRIHDMHVENGQLTADAEFVVDHNGQRRKQRMDVVFLVHGDKVRLLRLQEK | 1.4 |
| DPKKAHEVAEEVMKAFVNGNDEQVKRLLKPDVTAKVADRETQGPEQIVRYLRRFDKLGVQYHEEETRKEGNRVEVHTKYKKGDQEATVTVVYEADNGKVDRIEVRYDEEMKKLFEKG | 0.279 |
| DEEKLRKDMEEAFRLVTQGNPEEFADRFRDNPRMHVGDKEYHGREEARKAITTLVKHIDRIELHHIDIQGDKAEVRYRATVNGKRADHVMRIEANNGQLQRASVDPDLVTSVLR | -0.347 |
| DEDTARKQVQIYKDNDPNQLVRMFDENARLKVGDQTVDGREELERWVKRLRTRVDRYSYKNVDIQGERVVIDMVMVVDGKQVEFVVEFVVEDGRIKNAKVQARNKDEETKLQEAIG | 1.25 |
| DHEELEVVKEWFDAIQKGDPKTIQELADKDAEFQIGDKTVRGREHLVETVERRKKHMEFQIRIDRMDVHGDKAVIDVTMSNKHNGQPSQDRYNVRVELHNGKIQNVDQSKRS | -0.033 |
| DEEVKDFAEKMLKNWHTGNWQHFAKLLDENAKIVIGDKRYHGTENFERMADSIQKQMSIRIESMSVEVHGEKAKFSATVVENHNGNPTRFHISAEVTVRGDKVDHFNQQNDS | 1.04 |
| DEEQVEHAMNRLVQALRSGDEKKLLDLAPEDVKMRIGDREFHGREDFEKAVKEFVDRVDHFQFEDVSIRGDDIFIHVWNQVNGRRHKQVITVKAHNGRMKHMVLDTP | 0.983 |
| DDEIWSQIEHLLEIFKTGDEERYREQVDPNAKADVGDKKIHGRERIARHLYHLAKNMTIKREVDSVNIQGNEVSASFEVTVNINGNPIRFTVRVNYNFHNGRLQTFEIDVSEDLTKHMDS | 1.9 |
| DDREQAQKFMDLFEDAIKDGDPRQAEELAPPDAKARYGDKKLTGMHDIARHFIDEVKRVDHHRVTYKDIKNEGNKFVFTFVYTFKHNGQSDDKQVRVEAENHNGRLLVTSIHDT | 0.724 |
| DEEAQKTAEDFLRAFQDGNHEQLLKLMDKDAQAQYGDQRLHGREKLRQHIYELLKNIRLEYSIDDVKVDGNNVRIHMQYEAEVNGQPVKDKAKVDIVFHNGKIKTFMVHFSEEYVQTVRS | 0.903 |
| DEEELERQAQELVDAWQTNDESKIRHLVDENARVQVGDTTWKGREKAEEQVQEFKKQVDRLRVISVRVHGENIVVHVEIVHNGKHFSLTIVIEMHNGKVKHISVDPKAVEIATK | 0.497 |
| DEEHQKIAKEALEQIQTGDEDEIKRQFDPNAKLQVGDQSVHGRETAAKFVRDRRRQMRIHLDDVDVKAKNGHVRLMMDVEVDHNGHPTKHRQVMIVKIHNGQIKKMTVNERD | -0.028 |
| DDQVAKMVRKLLRLEESGNEEELRKLADEEAEFVVGDKRYRGMTEYVQSVYHKKKEIRFKIITYSAEDDGDKIVVIIKMTNNHNGQPDTFRVKVVFVANNGNLKHANFRKRK | 0.39 |
| DEDDLRRAQKDLQQNDFHKIARDADENVRVRIGDTTYHGRETLISFLKEMQDRADHVSIKHISVEGDKITADFEMQVDGKTDTFDLFIVVHNGRYQHVHFEVRSEDFSKFMREIES | 1.02 |
